Tests used:
PACAP27 = target: T1, PACAP27 (human, not fully specified); assay: SPR (Biacore), 37 C, captured antibody; target PACAP27
T1 peptide: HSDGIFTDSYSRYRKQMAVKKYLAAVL
Method: (§1) In brief, antibody and peptide interaction was determined on a Biacore S200 (GE Healthcare) by method previously described (Andreu and Gomes 2002). An anti-Human IgG Fc capture antibody was immobilized on a CM5 biosensor chip via standard amine coupling. Anti-PACAP antibodies were injected and captured to 200 to 400 response units (RU),). PACAP38, PACAP27 and VIP were diluted in HBS-EP+ buffer containing 0.1% w/v BSA (Bovostar, catalog number BSAS1.0) and 0.15 M NaCl (Sigma-Aldrich catalog number S7653), pH 7.4. Binding kinetics of antibodies were determined by injection of two-fold serial dilutions of PACAPs (12 nm to 0 nM) and VIP (1200 nM to 0 nM) in running buffer at 37° C. with a flow rate of 40 μL/min for 2 min followed by a dissociation for 10 minutes. For subsequent cycles, the chip was regenerated using 0.85% phosphoric acid. Data was analysed with the Biacore S200 Evaluation Software (ver 1.0). Association rate (kₐ) and dissociation rate (kd) constants were determined using a simple one-to-one Langmuir binding model and used to calculate the equilibrium dissociation constant (KD).
(§2) The selectivity of antibody 890C was assessed by comparing the inhibition of PACAP38-signalling to inhibition of VIP-signalling in a cyclic AMP (cAMP) measuring cell-based functional assay.

PACAP38 [1] = target: T2, PACAP38 (human, not fully specified); assay: cell-based or functional assay
T2 peptide: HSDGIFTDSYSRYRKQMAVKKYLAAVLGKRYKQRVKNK

PACAP38 [2] = target: T2, PACAP38; assay: SPR (Biacore), 37 C, captured antibody; target PACAP38
Method: as §1, §2

VIP [3] = target: T3, VIP (human); assay: SPR (Biacore), 37 C, captured antibody; target VIP
T3 construct: also called vasoactive intestinal peptide
T3 peptide: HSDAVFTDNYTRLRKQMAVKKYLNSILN
Method: as §1, §2

VIP [4] = target: T3, VIP; assay: cell-based or functional assay
PACAP38 [5] = target: T2, PACAP38; assay: cell-based or functional assay
PACAP38 [6] = target: T2, PACAP38; assay: cell-based or functional assay
PACAP38 [7] = target: T2, PACAP38; assay: SPR (Biacore), 37 C, antibody captured via anti-human Fc, peptide analyte
Method: as §1

PACAP38 [8] = target: T2, PACAP38; assay: cell-based or functional assay
GIP = target: T4, GIP; assay: SPR (Biacore) at 37 C, captured antibody, 37.5 nM peptide, relative response after 15 sec dissociation
T4 peptide: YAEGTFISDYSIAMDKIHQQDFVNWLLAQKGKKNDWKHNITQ
Method: (§3) The anti-PACAP antibodies, e.g., 890C, were tested against related peptides in the Secretin Glucagon family (Table 19) to determine the presence and extent of any off-target binding. Nine bioactive peptides in the glucagon superfamily are: PACAP, VIP, glucagon, Glucagon-Like Peptides (GLP-1, GLP-2), Growth Hormone Releasing Factor (GRF or GHRF), Peptide Histidine Methionine (PHM), secretin, and Gastric inhibitory polypeptide (GIP). Following capture of antibodies as described in example 4, the antibody and the peptide interaction was measured by injection of 37.5 nM of each peptide diluted in buffer at 37° C. with a flow rate of […] for 2 min followed by a dissociation phase of 4-5 min. Samples were injected in a multi-cycle manner over freshly captured anti-PACAP antibody, by regenerating the capture surfaces with two injections of 0.85% phosphoric acid at a flow rate of 30 μL/min.
as §2

Secretin = target: T5, Secretin; assay: as above
T5 peptide: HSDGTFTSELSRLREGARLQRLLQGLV
Method: as §3, §2

GLP-2 = target: T6, GLP-2; assay: as above
T6 construct: also called Glucagon-Like Peptide 2
T6 peptide: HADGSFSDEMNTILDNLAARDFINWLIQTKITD
Method: as §3, §2

PHM = target: T7, PHM; assay: as above
T7 construct: also called Peptide Histidine Methionine
T7 peptide: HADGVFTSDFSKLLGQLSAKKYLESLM
Method: as §3, §2

GLP-1 = target: T8, GLP-1; assay: as above
T8 construct: also called Glucagon-Like Peptide 1
T8 peptide: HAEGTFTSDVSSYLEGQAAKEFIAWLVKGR
Method: as §3, §2

GRF = target: T9, GRF; assay: as above
T9 construct: also called GHRF; Growth Hormone Releasing Factor
T9 peptide: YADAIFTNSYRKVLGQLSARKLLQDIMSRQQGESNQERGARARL
Method: as §3, §2

Glucagon = assay: as above
Method: as §3, §2

PACAP38 [9] = target: T2, PACAP38; assay: SPR (Biacore S200) off-rate ranking, antibody captured from supernatant, single injection of 33.3 nM PACAP38
Method: as §1, with “Binding kinetics of antibodies were determined by injection of two-fold serial dilutions of PACAPs (12 nm to 0 nM) and VIP (1200 nM to 0 nM) in running buffer at 37° C. with a flow rate of 40 μL/min for 2 min followed by a dissociation for 10 minutes.” left out

Chain of Glucagon (peptide, as listed by the source): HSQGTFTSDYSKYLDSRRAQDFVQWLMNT

Kd (PACAP27): 0.218 nM
selectivity, inhibition of PACAP38-induced cAMP production (CHO-K1, PAC1 receptor) versus VIP-induced cAMP production (CHO-K1, VPAC1 receptor) (PACAP38 [1]): > 1000 fold
Kd (PACAP38 [2]): 0.054 nM
Kd (VIP [3]): 390 nM
IC50 (read off the curve), VIP-induced cAMP production, CHO-K1 cells expressing VPAC1 (VIP [4]): ~600 nM
IC50 (read off the curve), PACAP-induced cAMP production, CHO-K1 cells expressing PAC1 (PACAP38 [5]): ~0.4 nM
fold shift between the PACAP/PAC1 and the VIP/VPAC1 inhibition curves (selectivity for PACAP over VIP) (PACAP38 [5]): 1400 fold
IC50 (nM), PACAP-induced cAMP accumulation, CHO-K1 cells, cAMP-Glo (PACAP38 [6]): 0.32 nM
Kd (PACAP38 [7]): 0.0284 nM
koff (PACAP38 [7]): 0.000671 s⁻¹
kon (PACAP38 [7]): 2.36e+07 M⁻¹ s⁻¹
PACAP-38 IC50 (PACAP38 [8]): 0.32 nM
binding result (GIP): no binding (tested: 37.5 nM)
binding result (Secretin): no binding (tested: 37.5 nM)
binding result (GLP-2): no binding (tested: 37.5 nM)
binding result (PHM): no binding (tested: 37.5 nM)
binding result (GLP-1): no binding (tested: 37.5 nM)
binding result (GRF): no binding (tested: 37.5 nM)
binding result (Glucagon): no binding (tested: 37.5 nM)
Kd (PACAP38 [9]): 0.0284 nM
koff (PACAP38 [9]): 0.000671 s⁻¹
kon (PACAP38 [9]): 2.36e+07 M⁻¹ s⁻¹
B1: 890C (antibody, human IgG2, kappa, V domains shown)
VH: EVQLVQSGAEVKKPGSSVKVSCKASGGTFSDVYMHWVRQAPGQGLEWMGLIYPIFADTRYAQKFQGRVTITADESTSTAYMELSSLRSEDTAVYYCAIDQDGSFAYWGQGTLVTVSS
VL: DIVMTQSPDSLAVSLGERATINCKSSQSLLDADGKTYLNWLQQKPGQPPKRLIYWASTRESGVPDRFSGSGSGTDFTLTISSLQAEDVAVYYCWQGTWFDLTFGGGTKVEIKR
notes: Full chains as named '890C heavy chain' / '890C light chain' (IgG2DASS, kappa); also called anti-PACAP antibody 890C

Source: US20260226154A1 (CEPHALON, published 2026)
